In paper PMC7226451, “Half Way to Hypusine—Structural Basis for Substrate Recognition by Human Deoxyhypusine Synthase” (Biomolecules, 2020):

B1: truncated DHS Δ1-52 (domain or fragment, human, UniProt P49366 53-369, looked up)
chain: GFQATNFGRAVQQVNAMIEKKLEPLSQDEDQHADLTQSRRPLTSCTIFLGYTSNLISSGIRETIRYLVQHNMVDVLVTTAGGVEEDLIKCLAPTYLGEFSLRGKELRENGINRIGNLLVPNENYCKFEDWLMPILDQMVMEQNTEGVKWTPSKMIARLGKEINNPESVYYWAQKNHIPVFSPALTDGSLGDMIFFHSYKNPGLVLDIVEDLRLINTQAIFAKCTGMIILGGGVVKHHIANANLMRNGADYAVYINTAQEFDGSDSGARPDEAVSWGKIRVDAQPVKVYADASLVFPLLVAETFAQKMDAFMHEKNED
notes: human deoxyhypusine synthase, Uniprot P49366, residues 53-369 (lacks the N-terminal ball-and-chain motif, residues 1-52); Cloned in pET24d with an N-terminal 6xHis-tag and a TEV site; also called truncation mutant; source: E. coli BL21(DE3), purified (HisTrap, TEV cleavage, reverse HisTrap, SEC); not shown: His6, N-terminal, cleaved
B2: deoxyhypusine synthase (DHS), full-length, wild type (enzyme, human, UniProt P49366 1-369, looked up)
chain: MEGSLEREAPAGALAAVLKHSSTLPPESTQVRGYDFNRGVNYRALLEAFGTTGFQATNFGRAVQQVNAMIEKKLEPLSQDEDQHADLTQSRRPLTSCTIFLGYTSNLISSGIRETIRYLVQHNMVDVLVTTAGGVEEDLIKCLAPTYLGEFSLRGKELRENGINRIGNLLVPNENYCKFEDWLMPILDQMVMEQNTEGVKWTPSKMIARLGKEINNPESVYYWAQKNHIPVFSPALTDGSLGDMIFFHSYKNPGLVLDIVEDLRLINTQAIFAKCTGMIILGGGVVKHHIANANLMRNGADYAVYINTAQEFDGSDSGARPDEAVSWGKIRVDAQPVKVYADASLVFPLLVAETFAQKMDAFMHEKNED
modifications: Cys177 covalently modified to a β-mercaptoethanol (BME) adduct (seen in all crystal structures)
notes: human deoxyhypusine synthase, Uniprot P49366, residues 1-369; gene optimised for E. coli and synthesised; Cloned in pET24d (NcoI/BamHI) with an N-terminal 6xHis-tag and a TEV site; also called DHS wt; full length DHS; source: E. coli BL21(DE3), purified (HisTrap, TEV cleavage, reverse HisTrap, SEC); not shown: His6, N-terminal, cleaved

Target: the molecule itself
Experiment: SEC-MALS; pure protein on XBridge BEH200 7.8 x 300 in 50 mM Tris 7.8, 200 mM NaCl, 5 mM β-ME, 1 mL/min; MALS with refractive index

Protein	stoichiometry N
B1	2
B2	4
